In patent US20260242478A1 (published 2026):
Where no end group is shown, it is not given here.

B1: Phage-2188 (peptide)
peptide: LSHWCSPQWMCSGF
notes: tested as crude clonal phage supernatant
B2: Phage-2182 (peptide)
peptide: HEKLCIPWWMCEDH
notes: as for B1
B3: Phage-2180 (peptide)
peptide: LIKWCTPPWMCEQL
notes: as for B1
B4: Phage-2174 (peptide)
peptide: YVNWCTPEWMCVGF
notes: Clonal phage of the peptide-180 library, tested as crude supernatant; not shown: pIII of the bacteriophage, to which the peptide is fused
B5: Phage-2184 (peptide)
peptide: TEKWCIPEWMCAHQ
modifications: cysteine pairing not given here; also: displayed on bacteriophage as fusion to pIII
notes: as for B1
B6: Phage-2189 (peptide)
peptide: WYKWCTPAWMCEFT
notes: as for B1
B7: Phage-2183 (peptide)
peptide: VHMRCIPEWMCQVF
notes: as for B1
B8: Phage-2175 (peptide)
peptide: VIPWCIPEWMCTAS
notes: as for B4
B9: Phage-2185 (peptide)
peptide: WSKSCTPAWMCEGF
notes: as for B1
B10: Phage-2179 (peptide)
peptide: EPKLCRPAWMCVGM
notes: as for B1
B11: Phage-2172 (peptide)
peptide: MAMMCIPPWMCDTM
notes: as for B4
B12: Phage-2186 (peptide)
peptide: EFKWCIPAWMCTAA
notes: as for B1
B13: Phage-2181 (peptide)
peptide: LDKLCIPSWMCWSH
notes: as for B1
B14: Phage-2178 (peptide)
peptide: ITKWCTPAWMCAHL
modifications: cysteine pairing not given here; also: displayed on bacteriophage as fusion to pIII
notes: as for B1
B15: Phage-2177 (peptide)
peptide: SLHLCIPQWMCGIS
modifications: cysteine pairing not given here; also: displayed on bacteriophage as fusion to pIII
notes: as for B1
B16: Phage-2176 (peptide)
peptide: VEHWCTPRWMCRGF
notes: as for B4
B17: Phage-2173 (peptide)
peptide: ENKWCIPTWMCAHE
modifications: cysteine pairing not given here; also: displayed on phage, fused to pIII
notes: as for B4
B18: Phage-2187 (peptide)
peptide: EIKWCTPAWMCEGF
notes: as for B1

Legend:
[1] = biological target: T1, Anti-PSMA Fab (SEQ ID NOs: 19, 20); assay: phage binding ELISA; Fab-coated wells pre-incubated with PSMA antigen as competitor, anti-M13-HRP detection;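 also: clonal phage supernatants screened, with reference wells given blocking buffer only (no PSMA antigen) before phage were added for a brief incubation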
T1 construct: Biotinylated and captured on neutravidin coated plates in the phage ELISA; also called 006 PSMA Fab
Protocol: (§1) Clonal phage were harvested as crude supernatants and screened via standard ELISAs. […] Prior to the addition of clonal phage. wells were incubated with blocking buffer and PSMA antigen or blocking buffer alone. Without washing or aspirating, clonal phage supernatants were then added to the wells and incubated for a short time. Wells were then washed followed by detection of bound phage using a horse radish conjugated anti-M13 antibody.

[2] = biological target: T1, Anti-PSMA Fab (SEQ ID NOs: 19, 20); assay: phage binding ELISA; biotinylated PSMA Fab on neutravidin plate, clonal phage detected with anti-M13-HRP
Protocol: as §1

[3] = biological target: T2, Anti-PSMA Fab (SEQ ID NOs: 19, 20); assay: phage ELISA; captured PSMA Fab pre-incubated with PSMA antigen as competitor, anti-M13 HRP detection
T2 construct: Biotinylated and captured on neutravidin coated plates in the phage ELISA; also called 006 PSMA Fab
Protocol: as §1

[4] = biological target: T2, Anti-PSMA Fab (SEQ ID NOs: 19, 20); assay: phage ELISA; biotinylated PSMA Fab captured on neutravidin plate, clonal phage supernatant, anti-M13 HRP detection
Protocol: as §1

Row | Binder | Anti-PSMA Fab signal in the presence of PSMA [1] | Anti-PSMA Fab (SEQ ID NOs: 19, 20) signal [2] | Phage binding ELISA, Anti-PSMA Fab signal in the presence of PSMA [3] | Phage binding ELISA, Anti-PSMA Fab (SEQ ID NOs: 19, 20) signal [4]
1 | B1 | 0.0932 | 1.63 |  | 
2 | B2 | 0.0868 | 1.64 |  | 
3 | B3 | 0.0655 | 1.64 |  | 
4 | B4 |  |  | 0.0598 | 1.64
5 | B5 | 0.0839 | 1.63 |  | 
6 | B6 | 0.145 | 1.63 |  | 
7 | B7 | 0.071 | 1.63 |  | 
8 | B8 |  |  | 0.0692 | 1.64
9 | B9 | 0.0843 | 1.63 |  | 
10 | B10 | 0.0704 | 1.64 |  | 
11 | B11 |  |  | 0.0889 | 1.65
12 | B12 | 0.0998 | 1.63 |  | 
13 | B13 | 0.0713 | 1.64 |  | 
14 | B14 | 0.0904 | 1.64 |  | 
15 | B15 | 0.0806 | 1.64 |  | 
16 | B16 |  |  | 0.0605 | 1.64
17 | B17 |  |  | 0.0646 | 1.64
18 | B18 | 0.0762 | 1.63 |  | 
